Data published in US20030021774A1.
Changes are numbered by the printed parent chain.

Tests used:
Assay in all cases: cell-based or functional assay
[1] = biological target: T1, Sub.Novo, subtilisin from Bacillus amyloliquefaciens (Bacillus amyloliquefaciens) (UniProt P00782)
T1 sequence (looked up): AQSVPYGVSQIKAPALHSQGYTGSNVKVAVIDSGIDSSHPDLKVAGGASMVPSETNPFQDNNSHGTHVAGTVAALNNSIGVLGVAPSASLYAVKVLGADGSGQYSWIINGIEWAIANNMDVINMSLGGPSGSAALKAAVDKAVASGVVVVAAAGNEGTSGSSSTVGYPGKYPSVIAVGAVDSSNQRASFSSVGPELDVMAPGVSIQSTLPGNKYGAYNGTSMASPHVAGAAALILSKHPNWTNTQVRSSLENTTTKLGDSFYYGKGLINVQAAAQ

[2] = biological target: protease derived from Bacillus alcalophilus NCIMB 10438 (Bacillus alcalophilus NCIMB 10438)
[3] = biological target: T2, SAVINASE, subtilisin derived from Bacillus clausii (previously Bacillus lentus NCIB 10309) (Bacillus clausii (previously Bacillus lentus NCIB 10309)) (UniProt P29600)
T2 sequence (looked up): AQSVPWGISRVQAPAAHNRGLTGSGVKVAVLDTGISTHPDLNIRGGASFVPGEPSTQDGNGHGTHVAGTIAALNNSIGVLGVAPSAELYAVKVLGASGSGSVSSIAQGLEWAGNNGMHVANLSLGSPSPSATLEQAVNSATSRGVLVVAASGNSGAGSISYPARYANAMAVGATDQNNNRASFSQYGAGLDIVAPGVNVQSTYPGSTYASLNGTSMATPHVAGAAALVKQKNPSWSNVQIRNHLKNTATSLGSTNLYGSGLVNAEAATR

[4] = biological target: protease derived from Aspergillus sp. CBS 102448
[5] = biological target: protease derived from Fusarium oxysporum IFO 4471 (Fusarium oxysporum IFO 4471)
[6] = biological target: T3, Sub.Novo(Y217L), mutant of subtilisin from Bacillus amyloliquefaciens (Bacillus amyloliquefaciens) (UniProt P00782)
T3 sequence (looked up): T1 sequence (looked up) with Y217L

[7] = biological target: protease derived from Bacillus sp. NCIMB 40484 (Bacillus sp. NCIMB 40484)
[8] = biological target: protease derived from Paecilomyces lilacinus CBS 102449 (Paecilomyces lilacinus CBS 102449)
[9] = biological target: protease derived from Acremonium chrysogenum ATCC 48272 (Acremonium chrysogenum ATCC 48272)
Chain of protease derived from Acremonium chrysogenum ATCC 48272 (Acremonium chrysogenum ATCC 48272) (P29118 other isoform, or with tags, fused parts or gaps): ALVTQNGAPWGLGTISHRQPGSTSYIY

B1: Streptomyces Subtilisin Inhibitor (SSI) (protein, UniProt P01006 32-144, looked up)
chain: DAPSALYAPSALVLTVGKGVSATTAAPERAVTLTCAPGPSGTHPAAGSACADLAAVGGDLNALTRGEDVMCPMVYDPVLLTVDGVWQGKRVSYERVFSNECEMNAHGSSVFAF
In the case of B1, the Residual activity (%) on Suc-AAPF-pNA after incubation with SSI [1] is reported as 0.1%, the Residual activity (%) on Suc-AAPF-pNA after incubation with SSI [2] is reported as 0% and the Residual activity (%) on Suc-AAPF-pNA after incubation with SSI [3] is reported as 0%. The Residual activity (%) on Suc-AAPF-pNA after incubation with SSI [4] was 0.1%, the Residual activity (%) on Suc-AAPF-pNA after incubation with SSI [5] was 0.1% and the Residual activity (%) on Suc-AAPF-pNA after incubation with SSI [6] was 0%. The Residual activity (%) on Suc-AAPF-pNA after incubation with SSI [7] was 4.3%, the Residual activity (%) on Suc-AAPF-pNA after incubation with SSI [8] was 0.1% and the Residual activity (%) on Suc-AAPF-pNA after incubation with SSI [9] was 0.1%.
